How the values were obtained:
Shp2 = Shp2 (UniProt Q06124); assay: co-IP, anti-β4 IP, Shp2 blot; settings: reference: wild-type β4; sites Y1257,Y1494
[1] = target: Shp2 N-terminal SH2-containing domain (UniProt Q06124); assay: far-Western of β4 IP with GST-Shp2; settings: reference: wild-type β4

Substance: β4 integrin (from UniProt P16144-2) double mutant Y1257F/Y1494F
- binding against the reference (Shp2): weaker

Substance: β4 integrin (from UniProt P16144-2) β4-ΔShp2D (Y1257F, Y1494F)
- binding against the reference ([1]; sites Y1257,Y1494): weaker

Substance: β4 integrin (from UniProt P16144-2) β4-Y1440F
- binding against the reference ([1]; sites Y1440): weaker

From paper PMC2064708
